Test results from the RNAGym collection of RNA variant scans (doi:10.7554/elife.90254).

B1: OR4K15 (parent)
chain: GUUAACGGUCAUAGGCCAUGGAAACUAGGAGCACCAUUUCGCUGCCAGUGAAGAAAUGAACAAAGAAAAUCUGGGCCAGGCAGGCAUCAAAAGAAAUAGUCUUGCGCUCAACCAGAAAGUCUGUAAUCAUUUUAAGGGUA

Variants of: B1
Experiment: self-cleavage, relative activity (ratio to wild type); higher = more cleavage; in vitro, sequencing; the parent is a self-cleaving ribozyme
A129G A134G gave a self-cleavage of 1.15.
For A129G A134U, the self-cleavage was 1.02.
Work on U127C U133A yielded a self-cleavage of 1.7.
For A134G A140G, the self-cleavage was 0.28.
With A129U U132C the self-cleavage was 1.12.
In the case of U127C U131C, the self-cleavage is reported as 0.51.
Work on U131C U132C yielded a self-cleavage of 1.1.
In the case of U131C U132A, the self-cleavage is reported as 0.94.
Work on U132C A135G yielded a self-cleavage of 1.53.
U133A G136U showed a self-cleavage of 0.91.
Work on A134G G137U yielded a self-cleavage of 0.44.
A129G U133C showed a self-cleavage of 1.42.
For U127G, the self-cleavage was 1.32.
Variant G136C has a self-cleavage of 1.29.
Work on G136A yielded a self-cleavage of 1.34.
Work on G136U yielded a self-cleavage of 1.07.
U132C A134G showed a self-cleavage of 1.05.
Work on U131C A140U yielded a self-cleavage of 1.59.
U131C A140G gave a self-cleavage of 0.47.
U131C G137U gave a self-cleavage of 1.54.
Variant U131C G137A has a self-cleavage of 0.07.
Variant U130C A134G has a self-cleavage of 0.27.
With U130A U131C the self-cleavage was 1.75.
Work on A129G yielded a self-cleavage of 0.93.
For A129C, the self-cleavage was 0.97.
With A129U the self-cleavage was 0.65.
For U130C A135U, the self-cleavage was 0.65.
With U133C A140U the self-cleavage was 2.09.
Variant U133C A140G has a self-cleavage of 1.34.
U133C showed a self-cleavage of 1.29.
Variant U133G has a self-cleavage of 0.38.
U133A gave a self-cleavage of 1.32.
For A129U A134U, the self-cleavage was 1.18.
U132C G138U showed a self-cleavage of 1.54.
A129U U131C gave a self-cleavage of 0.96.
U130A U132C showed a self-cleavage of 1.42.
For A129G A135U, the self-cleavage was 1.54.
Variant A129G A135G has a self-cleavage of 1.08.
A129C U130C gave a self-cleavage of 0.63.
For U131C A135G, the self-cleavage was 1.55.
For U131C A135C, the self-cleavage was 1.02.
Work on U131C A135U yielded a self-cleavage of 0.87.
U130C U131C gave a self-cleavage of 1.01.
With U130C U131A the self-cleavage was 0.25.
With U127C U132A the self-cleavage was 0.62.
Work on U132C U139A yielded a self-cleavage of 0.99.
For U127C U139C, the self-cleavage was 0.89.
Variant A129G G137C has a self-cleavage of 1.54.
For C128A A134G, the self-cleavage was 1.63.
U127G A129G gave a self-cleavage of 0.97.
C128A U139C gave a self-cleavage of 1.05.
Variant A129C U133A has a self-cleavage of 1.68.
Variant A135U G137U has a self-cleavage of 1.68.
Work on A129G U131C yielded a self-cleavage of 1.38.
In the case of U130C U133C, the self-cleavage is reported as 1.54.
Work on A134U U139A yielded a self-cleavage of 1.59.
In the case of U130A U139C, the self-cleavage is reported as 0.78.
A134G A135G gave a self-cleavage of 1.25.
For U131A G137U, the self-cleavage was 0.48.
Variant U139C has a self-cleavage of 1.04.
U139A gave a self-cleavage of 0.59.
Work on U139G yielded a self-cleavage of 1.1.
A129C U132C gave a self-cleavage of 0.98.
Work on U130G A135G yielded a self-cleavage of 1.08.
Work on U130C G136U yielded a self-cleavage of 1.19.
With U139C A140C the self-cleavage was 1.42.
With A140U the self-cleavage was 1.12.
A140G showed a self-cleavage of 1.15.
Variant A140C has a self-cleavage of 1.4.
Variant G136A A140U has a self-cleavage of 2.39.
Work on G137C A140U yielded a self-cleavage of 1.65.
A129G A140U gave a self-cleavage of 2.17.
U130C A140G gave a self-cleavage of 1.
With U131C A134G the self-cleavage was 0.73.
A129G U139A showed a self-cleavage of 0.81.
A129G U139C gave a self-cleavage of 0.85.
In the case of U133C A135U, the self-cleavage is reported as 1.71.
A129U A135U showed a self-cleavage of 0.42.
